# Test results published in US20250327097A1, “ORGANISMS PRODUCING LESS CROTONIC ACID” (Global Bioenergies, priority 2021, published 2025).
# System: 3-methylcrotonic acid
# Format: biochemical, Yersinia frederiksenii
# Parameters: key: “+” representing a low increase in activity; “++++” representing a high increase in activity
row,Molecule,Activity relative to WT
1,I283T-N285P-N287T-Q290E-S322T-R361K-N388M-K394R-C430A-L432F-L434W-S436N-dG462 (protein) MFLKSLREQINLLKRQGDLRIINRPVDSYLEAAAIIRRSTETKAPVPLMTNIKGYPGCSIVGGLAALSSNPEYPLSRVAMSLGLSTTASAQSIVQYLIDGLKKTPYLPVEIDSNSAPCKQNILRGEDASLAHFPIPQVHQHDGNRYVNTWGVFIVESPDGQWCNWSIQRVQYLNDRQMIALVFPSQHISDIWEEWVKIGKPMPYALVQGCEPIVPYIAGLPLLERNVNEAEYIGALYGKGIEVVKCETHDLRVPASSEVVIEGYFAITREGVEGPFGEFAGYTPPETSLEPILSITAISWQDDPIWPVVAEGKPVDEYHTCTGIGDAAAIQNVLLTANLPVSFVWVPLYSACHLMIVSINKHWRQTHPDLTSEQLTKKVGDVIHQTRMSIKLPRIVVLDDDVDPADTESLLWALATRIHPERKRYFYESAIFPWLNCYSEEERHNRKGKRVIIDALLPENHGAISSFDYAYPDDIKQRVLMHWETDFSHD,++++
2,I283T-N285P-N287T-Q290E-S322T-N388M-K394R-E421W-C430A-L432F-L434W-S436N-dG462 (protein) MFLKSLREQINLLKRQGDLRIINRPVDSYLEAAAIIRRSTETKAPVPLMTNIKGYPGCSIVGGLAALSSNPEYPLSRVAMSLGLSTTASAQSIVQYLIDGLKKTPYLPVEIDSNSAPCKQNILRGEDASLAHFPIPQVHQHDGNRYVNTWGVFIVESPDGQWCNWSIQRVQYLNDRQMIALVFPSQHISDIWEEWVKIGKPMPYALVQGCEPIVPYIAGLPLLERNVNEAEYIGALYGKGIEVVKCETHDLRVPASSEVVIEGYFAITREGVEGPFGEFAGYTPPETSLEPILSITAISWQDDPIWPVVAEGKPVDEYHTCTGIGDAAAIQNVLLTANLPVSFVWVPLYSACHLMIVSINRHWRQTHPDLTSEQLTKKVGDVIHQTRMSIKLPRIVVLDDDVDPADTESLLWALATRIHPWRKRYFYESAIFPWLNCYSEEERHNRKGKRVIIDALLPENHGAISSFDYAYPDDIKQRVLMHWETDFSHD,++++
3,I283T-N285P-N287T-Q290E-S322T-N388M-K394R-H419P-C430A-L432F-L434W-S436N-dG462 (protein) MFLKSLREQINLLKRQGDLRIINRPVDSYLEAAAIIRRSTETKAPVPLMTNIKGYPGCSIVGGLAALSSNPEYPLSRVAMSLGLSTTASAQSIVQYLIDGLKKTPYLPVEIDSNSAPCKQNILRGEDASLAHFPIPQVHQHDGNRYVNTWGVFIVESPDGQWCNWSIQRVQYLNDRQMIALVFPSQHISDIWEEWVKIGKPMPYALVQGCEPIVPYIAGLPLLERNVNEAEYIGALYGKGIEVVKCETHDLRVPASSEVVIEGYFAITREGVEGPFGEFAGYTPPETSLEPILSITAISWQDDPIWPVVAEGKPVDEYHTCTGIGDAAAIQNVLLTANLPVSFVWVPLYSACHLMIVSINRHWRQTHPDLTSEQLTKKVGDVIHQTRMSIKLPRIVVLDDDVDPADTESLLWALATRIPPERKRYFYESAIFPWLNCYSEEERHNRKGKRVIIDALLPENHGAISSFDYAYPDDIKQRVLMHWETDFSHD,++++
4,I283T-N285P-N287T-Q290E-S322T-M355C-N388M-K394R-C430A-L432F-L434W-S436N-dG462 (protein) MFLKSLREQINLLKRQGDLRIINRPVDSYLEAAAIIRRSTETKAPVPLMTNIKGYPGCSIVGGLAALSSNPEYPLSRVAMSLGLSTTASAQSIVQYLIDGLKKTPYLPVEIDSNSAPCKQNILRGEDASLAHFPIPQVHQHDGNRYVNTWGVFIVESPDGQWCNWSIQRVQYLNDRQMIALVFPSQHISDIWEEWVKIGKPMPYALVQGCEPIVPYIAGLPLLERNVNEAEYIGALYGKGIEVVKCETHDLRVPASSEVVIEGYFAITREGVEGPFGEFAGYTPPETSLEPILSITAISWQDDPIWPVVAEGKPVDEYHTCTGIGDAAAIQNVLLTANLPVSFVWVPLYSACHLCIVSINRHWRQTHPDLTSEQLTKKVGDVIHQTRMSIKLPRIVVLDDDVDPADTESLLWALATRIHPERKRYFYESAIFPWLNCYSEEERHNRKGKRVIIDALLPENHGAISSFDYAYPDDIKQRVLMHWETDFSHD,++++
5,I283T-N285P-N287T-Q290E-S322T-N388M-K394H-C430A-L432F-L434W-S436N-dG462 (protein) MFLKSLREQINLLKRQGDLRIINRPVDSYLEAAAIIRRSTETKAPVPLMTNIKGYPGCSIVGGLAALSSNPEYPLSRVAMSLGLSTTASAQSIVQYLIDGLKKTPYLPVEIDSNSAPCKQNILRGEDASLAHFPIPQVHQHDGNRYVNTWGVFIVESPDGQWCNWSIQRVQYLNDRQMIALVFPSQHISDIWEEWVKIGKPMPYALVQGCEPIVPYIAGLPLLERNVNEAEYIGALYGKGIEVVKCETHDLRVPASSEVVIEGYFAITREGVEGPFGEFAGYTPPETSLEPILSITAISWQDDPIWPVVAEGKPVDEYHTCTGIGDAAAIQNVLLTANLPVSFVWVPLYSACHLMIVSINRHWRQTHPDLTSEQLTKKVGDVIHQTRMSIKLPHIVVLDDDVDPADTESLLWALATRIHPERKRYFYESAIFPWLNCYSEEERHNRKGKRVIIDALLPENHGAISSFDYAYPDDIKQRVLMHWETDFSHD,++++
6,N287V-N388M-K394R-C430N-L432F-L434W-S436N (protein) MFLKSLREQINLLKRQGDLRIINRPVDSYLEAAAIIRRSTETKAPVPLMTNIKGYPGCSIVGGLAALSSNPEYPLSRVAMSLGLSTTASAQSIVQYLIDGLKKTPYLPVEIDSNSAPCKQNILRGEDASLAHFPIPQVHQHDGNRYVNTWGVFIVESPDGQWCNWSIQRVQYLNDRQMIALVFPSQHISDIWEEWVKIGKPMPYALVQGCEPIVPYIAGLPLLERNVNEAEYIGALYGKGIEVVKCETHDLRVPASSEVVIEGYFAITREGVEGPFGEFAGYIPNEVSLQPILSITAISWQDDPIWPVVAEGKPVDEYHTCSGIGDAAAIQNVLLTANLPVSFVWVPLYSACHLMIVSINRHWRQTHPDLTSEQLTKKVGDVIHQTRMSIKLPRIVVLDDDVDPADTESLLWALATRIHPERKRYFYESNIFPWLNCYSEEERHNRKGKRVIIDALLPENHGAISSFDYAYPDDIKQRVLMHWETDFSHD,+
7,I283T-N285P-N287T-Q290E-S322T-N388S-K394R-C430A-L432F-L434W-S436N-dG462 (protein) MFLKSLREQINLLKRQGDLRIINRPVDSYLEAAAIIRRSTETKAPVPLMTNIKGYPGCSIVGGLAALSSNPEYPLSRVAMSLGLSTTASAQSIVQYLIDGLKKTPYLPVEIDSNSAPCKQNILRGEDASLAHFPIPQVHQHDGNRYVNTWGVFIVESPDGQWCNWSIQRVQYLNDRQMIALVFPSQHISDIWEEWVKIGKPMPYALVQGCEPIVPYIAGLPLLERNVNEAEYIGALYGKGIEVVKCETHDLRVPASSEVVIEGYFAITREGVEGPFGEFAGYTPPETSLEPILSITAISWQDDPIWPVVAEGKPVDEYHTCTGIGDAAAIQNVLLTANLPVSFVWVPLYSACHLMIVSINRHWRQTHPDLTSEQLTKKVGDVIHQTRSSIKLPRIVVLDDDVDPADTESLLWALATRIHPERKRYFYESAIFPWLNCYSEEERHNRKGKRVIIDALLPENHGAISSFDYAYPDDIKQRVLMHWETDFSHD,++++
8,I283T-N285P-N287T-Q290E-S322T-M355V-N388M-K394R-C430A-L432F-L434W-S436N-dG462 (protein) MFLKSLREQINLLKRQGDLRIINRPVDSYLEAAAIIRRSTETKAPVPLMTNIKGYPGCSIVGGLAALSSNPEYPLSRVAMSLGLSTTASAQSIVQYLIDGLKKTPYLPVEIDSNSAPCKQNILRGEDASLAHFPIPQVHQHDGNRYVNTWGVFIVESPDGQWCNWSIQRVQYLNDRQMIALVFPSQHISDIWEEWVKIGKPMPYALVQGCEPIVPYIAGLPLLERNVNEAEYIGALYGKGIEVVKCETHDLRVPASSEVVIEGYFAITREGVEGPFGEFAGYTPPETSLEPILSITAISWQDDPIWPVVAEGKPVDEYHTCTGIGDAAAIQNVLLTANLPVSFVWVPLYSACHLVIVSINRHWRQTHPDLTSEQLTKKVGDVIHQTRMSIKLPRIVVLDDDVDPADTESLLWALATRIHPERKRYFYESAIFPWLNCYSEEERHNRKGKRVIIDALLPENHGAISSFDYAYPDDIKQRVLMHWETDFSHD,++++
9,I283T-N285P-N287T-Q290E-S322T-N388M-K394R-H419A-C430A-L432F-L434W-S436N-dG462 (protein) MFLKSLREQINLLKRQGDLRIINRPVDSYLEAAAIIRRSTETKAPVPLMTNIKGYPGCSIVGGLAALSSNPEYPLSRVAMSLGLSTTASAQSIVQYLIDGLKKTPYLPVEIDSNSAPCKQNILRGEDASLAHFPIPQVHQHDGNRYVNTWGVFIVESPDGQWCNWSIQRVQYLNDRQMIALVFPSQHISDIWEEWVKIGKPMPYALVQGCEPIVPYIAGLPLLERNVNEAEYIGALYGKGIEVVKCETHDLRVPASSEVVIEGYFAITREGVEGPFGEFAGYTPPETSLEPILSITAISWQDDPIWPVVAEGKPVDEYHTCTGIGDAAAIQNVLLTANLPVSFVWVPLYSACHLMIVSINRHWRQTHPDLTSEQLTKKVGDVIHQTRMSIKLPRIVVLDDDVDPADTESLLWALATRIAPERKRYFYESAIFPWLNCYSEEERHNRKGKRVIIDALLPENHGAISSFDYAYPDDIKQRVLMHWETDFSHD,++++
10,I283T-N285P-N287T-Q290E-S322T-M355T-N388M-K394R-C430A-L432F-L434W-S436N-dG462 (protein) MFLKSLREQINLLKRQGDLRIINRPVDSYLEAAAIIRRSTETKAPVPLMTNIKGYPGCSIVGGLAALSSNPEYPLSRVAMSLGLSTTASAQSIVQYLIDGLKKTPYLPVEIDSNSAPCKQNILRGEDASLAHFPIPQVHQHDGNRYVNTWGVFIVESPDGQWCNWSIQRVQYLNDRQMIALVFPSQHISDIWEEWVKIGKPMPYALVQGCEPIVPYIAGLPLLERNVNEAEYIGALYGKGIEVVKCETHDLRVPASSEVVIEGYFAITREGVEGPFGEFAGYTPPETSLEPILSITAISWQDDPIWPVVAEGKPVDEYHTCTGIGDAAAIQNVLLTANLPVSFVWVPLYSACHLTIVSINRHWRQTHPDLTSEQLTKKVGDVIHQTRMSIKLPRIVVLDDDVDPADTESLLWALATRIHPERKRYFYESAIFPWLNCYSEEERHNRKGKRVIIDALLPENHGAISSFDYAYPDDIKQRVLMHWETDFSHD,++++
